T1: recombinant human TL1A (human, UniProt O95150 71-251)
T1 construct: Homotrimeric cytokine; biotinylated with Sulfo-NHS-biotin where captured for SPR, coated unlabelled in ELISA, soluble in bioassays; also called TNFSF15
T1 chain: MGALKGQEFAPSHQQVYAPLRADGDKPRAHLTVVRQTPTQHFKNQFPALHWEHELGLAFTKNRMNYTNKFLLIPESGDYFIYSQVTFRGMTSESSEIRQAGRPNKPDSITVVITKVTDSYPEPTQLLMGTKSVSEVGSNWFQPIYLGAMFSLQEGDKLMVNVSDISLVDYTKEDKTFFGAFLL

T2: full-length human TL1A on CHO-K1 cells (human, UniProt O95150 1-251)
T2 construct: whole, on cells; also called cells over-expressing human TL1A
T2 sequence (looked up): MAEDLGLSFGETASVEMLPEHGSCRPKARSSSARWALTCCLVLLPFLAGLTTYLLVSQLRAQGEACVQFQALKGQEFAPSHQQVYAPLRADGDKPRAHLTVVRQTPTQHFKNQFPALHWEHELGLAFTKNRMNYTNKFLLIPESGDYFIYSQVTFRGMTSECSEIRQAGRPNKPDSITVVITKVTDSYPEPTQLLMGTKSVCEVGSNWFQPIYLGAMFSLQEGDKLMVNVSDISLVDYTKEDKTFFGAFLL


What was measured:
recombinant human TL1A = molecular target: T1, recombinant human TL1A; assay: direct binding ELISA on plate-coated recombinant human TL1A (1 ug/mL), anti-human IgG-Fc HRP, OD450
Method: (§1) For the direct binding ELISA, 96-well high binding plates (Corning, product number 3590) were coated with 1 μg/mL recombinant TL1A in 100 μL/well in PBS overnight at 4° C. Plates were then blocked in PBS+0.02% casein solution and washed with PBS+0.05% Tween-20 following standard ELISA protocol. […] Plates were washed with PBS+0.05% Tween-20 following a standard ELISA protocol, and goat anti-human IgG-Fc HRP conjugated secondary antibody (Pierce, catalog number 31413) diluted to 1:10,000 in assay buffer was added to plates and incubated for 1 hour at room temperature. Next, the plates were washed with PBS+0.05% Tween-20 following a standard ELISA protocol, and then TMB substrate (BioFX Laboratories, catalog number TMBW-0100-01) was added to the plates. Reactions were stopped after approximately 5 minutes by adding 0.18 M ortho-phosphoric acid to each well and absorbance was read at 450 nm.

[1] = molecular target: T2, full-length human TL1A on CHO-K1 cells; assay: flow cytometry on CHO-K1 cells stably expressing full-length human TL1A, PE anti-human IgG, median fluorescent intensity
Method: A cell binding assay was performed to examine if the panel of [xTL1A] bivalent antibody variants could bind to human TL1A over-expressed on the cell surface. […] [xTL1A] bivalent antibody variants were incubated with cells on ice for 30-60 minutes at a concentration of either 1 μg/mL or 20 μg/mL. Cells were pelleted by centrifugation at 1500 RPM for 5 minutes at 4° C. and supernatant was discarded by aspiration. The cells were washed three times with DPBS with 4% FBS buffer as described. Cells were resuspended in 100 μL of PE-anti-human IgG (Life technologies Catalog number H10104) diluted 1:500 in DPBS with 4% FBS buffer and incubated on ice for 15 minutes. Cells were washed three times as described and resuspended in 200 μL of DPBS with 4% FBS buffer, then run on a flow cytometry instrument.

human serum albumin = molecular target: T3, human serum albumin (human, UniProt P02768 25-609); assay: direct binding ELISA on coated HSA
T3 construct: also called HSA
Method: as §1, with “ELISA method to HSA or BSA,” for “ELISA,”, “HSA or BSA” for “TL1A”, “following” for “following a”, “#31413)” for “catalog number 31413)”, “to” for “to the”, “plates.” for “plates. Reactions were stopped after approximately 5 minutes by adding 0.18 M ortho-phosphoric acid to each well and absorbance was read at 450 nm.”
(§2) Reactions were stopped after approximately 5 minutes by adding 0.18 M ortho-phosphoric acid to each well and absorbance was read at 450 nm. […] For this method, samples diluted to 0.3 mg/mL were dispensed into the sample tray of a MicroCal VP-Capillary DSC with Autosampler (Malvern Instruments, Inc.), equilibrated for 5 minutes at 10° C. and then scanned up to 110° C. at a rate of 100° C. per/hour. A filtering period of 16 seconds was selected. Raw data was baseline corrected and the protein concentration was normalized. Origin Software 7.0 (Origin Lab Corporation, Northampton, MA) was used to fit the data to an MN2-State Model with an appropriate number of transitions.

bovine serum albumin = molecular target: T4, bovine serum albumin (bovine, UniProt P02769 25-607); assay: direct binding ELISA on coated BSA
T4 construct: also called BSA
Method: as §1, with “ELISA method to HSA or BSA,” for “ELISA,”, “HSA or BSA” for “TL1A”, “following” for “following a”, “#31413)” for “catalog number 31413)”, “to” for “to the”, “plates.” for “plates. Reactions were stopped after approximately 5 minutes by adding 0.18 M ortho-phosphoric acid to each well and absorbance was read at 450 nm.”
as §2

T4 sequence (P02769 25-607 limits assumed): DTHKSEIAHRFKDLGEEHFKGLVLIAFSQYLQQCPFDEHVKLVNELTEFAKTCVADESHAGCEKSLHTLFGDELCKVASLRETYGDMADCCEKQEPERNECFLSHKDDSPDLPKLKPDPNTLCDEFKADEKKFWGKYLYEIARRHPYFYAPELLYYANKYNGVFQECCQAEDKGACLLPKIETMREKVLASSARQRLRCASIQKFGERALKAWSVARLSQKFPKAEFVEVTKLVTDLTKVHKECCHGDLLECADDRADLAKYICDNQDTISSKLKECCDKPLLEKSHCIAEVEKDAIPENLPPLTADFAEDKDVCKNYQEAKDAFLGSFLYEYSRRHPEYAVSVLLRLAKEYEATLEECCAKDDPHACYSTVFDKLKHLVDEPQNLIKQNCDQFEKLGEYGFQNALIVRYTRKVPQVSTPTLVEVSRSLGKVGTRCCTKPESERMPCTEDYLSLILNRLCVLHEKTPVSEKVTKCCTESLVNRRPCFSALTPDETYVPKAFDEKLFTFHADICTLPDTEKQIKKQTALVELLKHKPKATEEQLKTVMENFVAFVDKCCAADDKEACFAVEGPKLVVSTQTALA

Binder | binding result (recombinant human TL1A) | binding result [1] | binding result (human serum albumin) | binding result (bovine serum albumin)
[xTL1A]-0336 (antibody, human IgG1, kappa, V domains shown, bivalent disabled antibody, IgG1 effector-function-minimized/kappa) VH: QVQLVQSGAEVKKPGASVKVSCKASGYTFTSYGISWVRQAPGQGLEWMGWISAYNGNTNYAQKLQGRVTMTTDTSTSTAYMELRSLRSDDTAVYYCARESYYGSEAFRAGMDVWGQGTTVTVSS VL: DIQMTQSPSSLSASVGDRVTITCRASQSVSSYLAWYQQKPGKAPKLLIYDASNRATGVPSRFSGSGSGTDFTLTISSLQPEDFATYYCQQRSNWPWTFGQGTKVEIKR | no binding (tested: 33.3 nM) | no binding (tested: 20 ug/mL) | – | –
[xTL1A]-0338 (antibody, human IgG1, kappa, V domains shown, bivalent disabled antibody, IgG1 effector-function-minimized/kappa) VH: QVQLVQSGAEVKKPGASVKVSCKASGYTFTSYGISWVRQAPGQGLEWMGWISAYNGNTNYAQKLQGRVTMTTDTSTSTAYMELRSLRSDDTAVYYCARESSYGSEAFRGGMDVWGQGTTVTVSS VL: DIQMTQSPSSLSASVGDRVTITCRASQSVSSYLAWYQQKPGKAPKLLIYDASNRATGVPSRFSGSGSGTDFTLTISSLQPEDFATYYCQQRSNWPWTFGQGTKVEIKR | no binding (tested: 33.3 nM) | no binding (tested: 20 ug/mL) | – | –
[xTL1A]-0352 (antibody, human IgG1, kappa, V domains shown, bivalent disabled antibody, IgG1 effector-function-minimized/kappa) VH: not shown VL: DIQMTQSPSSLSASVGDRVTITCRASQSVSSYLAWYQQKPGKAPKLLIYDASNRATGVPSRFSGSGSGTDFTLTISSLQPEDFATYYCQQRSNWPWTFGQGTKVEIKR | no binding (tested: 33.3 nM) | no binding (tested: 20 ug/mL) | – | –
[xTL1A]-0347 (antibody, human IgG1, kappa, V domains shown, bivalent disabled antibody, IgG1 effector-function-minimized/kappa) VH: not shown VL: DIQMTQSPSSLSASVGDRVTITCRASQSVSSYLAWYQQKPGKAPKLLIYDASNRATGVPSRFSGSGSGTDFTLTISSLQPEDFATYYCQQRSNWPWTFGQGTKVEIKR | no binding (tested: 33.3 nM) | no binding (tested: 20 ug/mL) | – | –
[xTL1A]-0349 (antibody, human IgG1, kappa, V domains shown, bivalent disabled antibody, IgG1 effector-function-minimized/kappa) VH: not shown VL: DIQMTQSPSSLSASVGDRVTITCRASQSVSSYLAWYQQKPGKAPKLLIYDASNRATGVPSRFSGSGSGTDFTLTISSLQPEDFATYYCQQRSNWPWTFGQGTKVEIKR | no binding (tested: 33.3 nM) | no binding (tested: 20 ug/mL) | – | –
[xTL1A]-0363 (antibody, human IgG1, kappa, V domains shown, bivalent disabled antibody, IgG1 effector-function-minimized/kappa) VH: not shown VL: DIQMTQSPSSLSASVGDRVTITCRASQSVSSYLAWYQQKPGKAPKLLIYDASNRATGVPSRFSGSGSGTDFTLTISSLQPEDFATYYCQQRSNWPWTFGQGTKVEIKR | no binding (tested: 33.3 nM) | no binding (tested: 20 ug/mL) | – | –
[xTL1A]-0358 (antibody, human IgG1, kappa, V domains shown, bivalent disabled antibody, IgG1 effector-function-minimized/kappa) VH: not shown VL: DIQMTQSPSSLSASVGDRVTITCRASQSVSSYLAWYQQKPGKAPKLLIYDASNRATGVPSRFSGSGSGTDFTLTISSLQPEDFATYYCQQRSNWPWTFGQGTKVEIKR | no binding (tested: 33.3 nM) | no binding (tested: 20 ug/mL) | – | –
TL1A-0371 MBsAb (bispecific antibody, not shown: human IgG1 constant region with hole KiH, effector-minimizing and LS mutations) heavy 1: QVQLVQSGAEVKKPGASVKVSCKASGYDYTYYGISWVRQAPGQGLEWMGWISTYNTGTHYAPSLQGRVTMTTDTSTSTAYMELRSLRSDDTAVYYCARESYYGSGAFRGGMDVWGQGTTVTVSSASTKGPSVFPLAPSSKSTSGGTAALGCLVKDYFPEPVTVSWNSGALTSGVHTFPAVLQSSGLYSLSSVVTVPSSSLGTQTYICNVNHKPSNTKVDKKVEPKSCDKTHTCPPCPAPEAAGAPSVFLFPPKPKDTLMISRTPEVTCVVVDVSHEDPEVKFNWYVDGVEVHNAKTKPREEQYNSTYRVVSVLTVLHQDWLNGKEYKCKVSNKALPAPIEKTISKAKGQPREPQVCTLPPSREEMTKNQVSLWCLVKGFYPSDIAVEWESNGQPENNYKTTPPVLDSDGSFFLYSKLTVDKSRWQQGNVFSCSVLHEALHSHYTQKSLSLSPGK heavy 2: not shown light: not shown | – | – | no binding (tested: 0.5-1000 nM) | no binding (tested: 0.5-1000 nM)
TL1A-0373 MBsAb (bispecific antibody, not shown: human IgG1 constant region with hole KiH, effector-minimizing and LS mutations) heavy 1: QVQLVQSGAEVKKPGASVKVSCKASGYDYTYYGISWVRQAPGQGLEWMGWISTYNTGTHYAPSLQGRVTMTTDTSTSTAYMELRSLRSDDTAVYYCARESYYGSGAFRGGMDVWGQGTTVTVSSASTKGPSVFPLAPSSKSTSGGTAALGCLVKDYFPEPVTVSWNSGALTSGVHTFPAVLQSSGLYSLSSVVTVPSSSLGTQTYICNVNHKPSNTKVDKKVEPKSCDKTHTCPPCPAPEAAGAPSVFLFPPKPKDTLMISRTPEVTCVVVDVSHEDPEVKFNWYVDGVEVHNAKTKPREEQYNSTYRVVSVLTVLHQDWLNGKEYKCKVSNKALPAPIEKTISKAKGQPREPQVCTLPPSREEMTKNQVSLWCLVKGFYPSDIAVEWESNGQPENNYKTTPPVLDSDGSFFLYSKLTVDKSRWQQGNVFSCSVLHEALHSHYTQKSLSLSPGK heavy 2: not shown light: not shown | – | – | no binding (tested: 0.5-1000 nM) | no binding (tested: 0.5-1000 nM)
TL1A-0374 MBsAb (bispecific antibody, not shown: human IgG1 constant region with hole KiH, effector-minimizing and LS mutations) heavy 1: QVQLVQSGAEVKKPGASVKVSCKASGYDYTYYGISWVRQAPGQGLEWMGWISTYNTGTHYAPSLQGRVTMTTDTSTSTAYMELRSLRSDDTAVYYCARESYYGSGAFRGGMDVWGQGTTVTVSSASTKGPSVFPLAPSSKSTSGGTAALGCLVKDYFPEPVTVSWNSGALTSGVHTFPAVLQSSGLYSLSSVVTVPSSSLGTQTYICNVNHKPSNTKVDKKVEPKSCDKTHTCPPCPAPEAAGAPSVFLFPPKPKDTLMISRTPEVTCVVVDVSHEDPEVKFNWYVDGVEVHNAKTKPREEQYNSTYRVVSVLTVLHQDWLNGKEYKCKVSNKALPAPIEKTISKAKGQPREPQVCTLPPSREEMTKNQVSLWCLVKGFYPSDIAVEWESNGQPENNYKTTPPVLDSDGSFFLYSKLTVDKSRWQQGNVFSCSVLHEALHSHYTQKSLSLSPGK heavy 2: not shown light: not shown | – | – | no binding (tested: 0.5-1000 nM) | no binding (tested: 0.5-1000 nM)
TL1A-0375 MBsAb (bispecific antibody, not shown: human IgG1 constant region with hole KiH, effector-minimizing and LS mutations) heavy 1: QVQLVQSGAEVKKPGASVKVSCKASGYDYTYYGISWVRQAPGQGLEWMGWISTYNTGTHYAPSLQGRVTMTTDTSTSTAYMELRSLRSDDTAVYYCARESYYGSGAFRGGMDVWGQGTTVTVSSASTKGPSVFPLAPSSKSTSGGTAALGCLVKDYFPEPVTVSWNSGALTSGVHTFPAVLQSSGLYSLSSVVTVPSSSLGTQTYICNVNHKPSNTKVDKKVEPKSCDKTHTCPPCPAPEAAGAPSVFLFPPKPKDTLMISRTPEVTCVVVDVSHEDPEVKFNWYVDGVEVHNAKTKPREEQYNSTYRVVSVLTVLHQDWLNGKEYKCKVSNKALPAPIEKTISKAKGQPREPQVCTLPPSREEMTKNQVSLWCLVKGFYPSDIAVEWESNGQPENNYKTTPPVLDSDGSFFLYSKLTVDKSRWQQGNVFSCSVLHEALHSHYTQKSLSLSPGK heavy 2: not shown light: not shown | – | – | no binding (tested: 0.5-1000 nM) | no binding (tested: 0.5-1000 nM)

Source: patent publication US20240059799A1 (Pfizer, published 2024)
